From the supplement of paper PMC12042874 come the findings set out here.

± gives the uncertainty stated by the source.

This data set can be described thus: amyloid nucleation score (Sup35N fusion, yeast selection) (log enrichment); library NNK2; higher = more nucleation; inactive = no reads after selection. Summed up:
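After 24 hours of induction with 100 μM copper sulfate, psi-negative yeast expressing peptides of 20 random codons fused to Sup35N were grown for 7 days at 30°C on medium lacking adenine and uracil. Input and output plasmid inserts were sequenced with Illumina, and sequences with under 100 input reads were discarded. Scores for nucleation are the DiMSum log enrichment of output over input reads, centred on the mode score of non-aggregating sequences.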
Take TSSLYISMMVLL: the amyloid nucleation score was found to be 4.07 ± 0.074.

The substance KLRPNLCKHYMTFMETSS had an amyloid nucleation score of 0.175 ± 0.53.

GTGINLSFLYFAAGVLCSSS yielded an amyloid nucleation score of -1.52 ± 1.1.

On to ESMGGEYQGGVFVG, for which the amyloid nucleation score was determined as 0.448 ± 0.38.

As to MRGAYLRFRSMCAGAAGKCD, the amyloid nucleation score entry was “inactive”.

QDVSYPSWYPGAFC had an amyloid nucleation score of -0.675 ± 1.1.

Substance LPRMGSEWFVCWLCSCVATW came in with an amyloid nucleation score of 0.718 ± 0.57.

WDCAWVLGLVAEGRLT showed an amyloid nucleation score of 6.09 ± 0.039.

Regarding RIYRRNQWVPGGDYSKGINL, the amyloid nucleation score was -0.892 ± 0.76.

Substance FFLSNWAAF had an amyloid nucleation score of 0.234 ± 0.55.

YRVYLQRHSGA showed an amyloid nucleation score of 3.78 ± 0.069.

In the case of SWRTWISRCYFTLDDVSKTA, the amyloid nucleation score was determined as 0.181 ± 0.43.

For the substance AGEQEVDGPVIQRWSGFTTR, the amyloid nucleation score was determined as 2.2 ± 0.21.

In turn, ASTSLMVN gave an amyloid nucleation score of 0.052 ± 0.46.

The substance LECVT displayed an amyloid nucleation score of 0.078 ± 0.74.

Take LLYQLRNMVILEHFMMIDFM: the amyloid nucleation score result is “inactive”.

In turn, NRRMRKAEPLP came in with an amyloid nucleation score of 0.644 ± 0.81.

With FASFVSIGRVVLLYSPSCYQ, the amyloid nucleation score was 5.71 ± 0.059.

HVYFSCAYWQPVYMYCCGKQ gave an amyloid nucleation score of 7.771 ± 0.059.

In turn, SRFLLKDKSNTSGVMQLGMW yielded an amyloid nucleation score of -0.374 ± 0.41.

Consider VWWFPRLPIPKESVIINGLS, for which the amyloid nucleation score entry was “inactive”.

LCSCANCLYSFFTG showed an amyloid nucleation score of 8.04 ± 0.023.

GYDIISQKLGIQSYQKCTFI returned an amyloid nucleation score of -1.86 ± 0.62.

Substance LVFDRFDGNFNRSMSVAVRV displayed an amyloid nucleation score of -0.211 ± 0.39.

Consider RVQVPLGRAGTRISRSGKIW, for which the amyloid nucleation score is 0.805 ± 0.43.

With RCIDSVLIMHITYFAAFGKL, the amyloid nucleation score amounted to 5.08 ± 0.099.

Substance CVICHYHLCLRQCIWSG gave an amyloid nucleation score of 5.373 ± 0.033.

As for LTGSFYQHNGMLSTPRHRCL, the amyloid nucleation score was -0.547 ± 0.63.

FWLVL displayed an amyloid nucleation score of -1.47 ± 0.73.

The substance HPDDTMKFSSRTHITTQTDR had an amyloid nucleation score of 0.908 ± 0.52.

Substance LRFPRGLNGNDPGSIAS registered an amyloid nucleation score of -0.085 ± 0.79.

Take IDLFFAYSHRV: the amyloid nucleation score was found to be 4.501 ± 0.044.

With RAPVSWRLK, the amyloid nucleation score amounted to 0.267 ± 0.42.

As for WYYRLLWYVLSQGRMRGNVQ, the amyloid nucleation score was -0.011 ± 0.41.

The substance STFIMCDRTDPASIAIA had an amyloid nucleation score of 0.6 ± 0.64.

For the substance TCATTDGVR, the amyloid nucleation score amounted to 1.04 ± 0.21.

Substance DMSIRRRI displayed an amyloid nucleation score of -0.419 ± 0.32.

The substance FLWVLIQANYLLTEMELSSG gave an amyloid nucleation score of -0.447 ± 1.1.

TNKYLVGSILYLFKHGWLGV: the amyloid nucleation score came out at 0.067 ± 0.55.

In turn, QGTQWFLLKVSAIVKQLRWT registered an amyloid nucleation score of -0.317 ± 0.79.

With RNSIYCTND, the amyloid nucleation score is -0.679 ± 0.47.

Regarding GGTLHWLAMDTNMVNMACIG, the amyloid nucleation score entry is “inactive”.

In turn, RHSHRARKVGEWGNLCLVEK registered an amyloid nucleation score of 0.26 ± 0.21.

In the case of RYKWFNKWYTCWYSRFKFYV, the amyloid nucleation score is -1.13 ± 0.26.

For VYGLVL, the amyloid nucleation score came out at 0.011 ± 0.45.

Regarding LLIFNGLYGWAIGDGLPSSW, the amyloid nucleation score came to 5.09 ± 0.051.

In turn, TVRANLKTRCMSRTTNQEHT had an amyloid nucleation score of 1.85 ± 0.15.

Take IWRNSANCGASDEAVDSLR: the amyloid nucleation score stood at 0.53 ± 0.56.

NTFGLEILRGWSYVCLGRRR registered an amyloid nucleation score of 5.323 ± 0.052.

Consider WTTLGGPVGREENGRRQAEG, for which the amyloid nucleation score was determined as 1.17 ± 0.23.

SLQVDRNWGGS had an amyloid nucleation score of 0.105 ± 0.55.

Turning to LDRSRTKSWLGDFWG, the amyloid nucleation score is -0.074 ± 0.46.

On to SESHICGV, for which the amyloid nucleation score was -1.62 ± 0.62.

As for FPHLFKSKNPSRNMNSTSPG, the amyloid nucleation score entry was “inactive”.

For the substance CPWSQSRLAYYTCGYYTASS, the amyloid nucleation score amounted to 0.193 ± 0.5.

VLYQGALRYGNVRRGHLIRF showed an amyloid nucleation score of 0.105 ± 1.1.

Consider YKPRGHEVRSVG, for which the amyloid nucleation score was -0.752 ± 0.48.

In turn, RDNFLNEY registered an amyloid nucleation score of -0.953 ± 0.36.

In the case of ISDRSTHQASVLTFSPPDFY, the amyloid nucleation score entry is “inactive”.

As for RMETTKPIRSSGTSITAPNG, the amyloid nucleation score amounted to 1.53 ± 0.53.

Substance VYYTVVCGDDRRCIKMCKFC yielded an amyloid nucleation score of 5.327 ± 0.032.

TSKWQRNLFGDGSLKEFTGE gave an amyloid nucleation score of -0.712 ± 1.1.

Consider QILNGSAY, for which the amyloid nucleation score was -0.899 ± 0.3.

With TYIQPVARRKHLA, the amyloid nucleation score came to 0.101 ± 0.39.

In the case of GICTWNFV, the amyloid nucleation score result is “inactive”.

NDHSVHINYLIIGAIHNTVN had an amyloid nucleation score of 8.405 ± 0.065.

As to FLIFVFLLYGPEMSDYCWTF, the amyloid nucleation score amounted to 0.14 ± 1.

On to RYAQGRRWSYRLNRCLVGRC, for which the amyloid nucleation score was 1.81 ± 0.27.

For LIVSKWVHLWGYNALDNKEK, the amyloid nucleation score was -1.65 ± 0.62.

For VWVRMRKAVGAVHYRDLRSS, the amyloid nucleation score came to 8.893 ± 0.075.

For the substance AYLLWVRYIYEHDSTIGWLI, the amyloid nucleation score result was “inactive”.

SACVLCFYQIFFYRVDCTGG registered an amyloid nucleation score of 6.414 ± 0.052.

On to RFEFIVMSLW, for which the amyloid nucleation score came to 3.19 ± 0.06.

LARASKHCSEVLGDCLA registered an amyloid nucleation score of 0.366 ± 0.8.

Take YVFLGD: the amyloid nucleation score was 2.35 ± 0.11.

Substance RGAAGILFTSLIFMSVYALI displayed an amyloid nucleation score of -0.104 ± 0.49.

Consider IVLRFFGFMDHSSYRNLFKE, for which the amyloid nucleation score is -0.375 ± 1.1.

As to IPLVKCRSCRRCNN, the amyloid nucleation score is 0.412 ± 0.5.

For MMNTMLHGIVVMNFSWVASW, the amyloid nucleation score came to 4.26 ± 0.053.

CTWIYTLTFFARNS: the amyloid nucleation score was determined as 0.01 ± 0.55.

With IMPNLAPGCRIRAIVND, the amyloid nucleation score was -0.006 ± 0.29.

As to FDTASTVDSVRIRKTKSSQ, the amyloid nucleation score result was “inactive”.

LWRVGHVHSWICPAICHGKC had an amyloid nucleation score of 4.37 ± 0.057.

As to CNRCIQRMRASMTDSVFSGV, the amyloid nucleation score is -1.35 ± 0.49.

NSITSRYNGTDGPESVSQ gave an amyloid nucleation score of -0.299 ± 0.79.

HAGMIYILYVNLRRTSKRMG registered an amyloid nucleation score of 3.86 ± 0.072.

Consider RTVYYHQFPGSGFVYVSGFS, for which the amyloid nucleation score was -0.324 ± 1.1.

YFKDLKADVRVKMTKLEWPQ registered an amyloid nucleation score of 2.67 ± 0.12.

FTRSWFLYTT gave an amyloid nucleation score of 3.85 ± 0.095.

The substance GFRVVCHILALCRYGTCLEI gave an amyloid nucleation score of -0.608 ± 0.35.

SYSSPHRINGCVIRP came in with an amyloid nucleation score of -0.084 ± 0.54.

SFKRFQ: the amyloid nucleation score was -0.347 ± 1.1.

Substance TLLTYMVLKCFQFVSEYLWK displayed an amyloid nucleation score of 3.7 ± 0.07.

In turn, WGNGLSFTAACLLVLLKRNS had an amyloid nucleation score of 2.2 ± 0.16.

As for EGRHNV, the amyloid nucleation score entry is “inactive”.

In the case of VMCTC, the amyloid nucleation score stood at 0.71 ± 0.48.

On to STLTFIVSSSDEGWSHYREA, for which the amyloid nucleation score was 3.79 ± 0.07.

For TMLFRRFYSFMSTL, the amyloid nucleation score was -0.053 ± 1.

As to FSLEMTLFWPVFRLCPISSL, the amyloid nucleation score came to 0.606 ± 0.66.

As for ITCIAGWSNLNDYVFYTVAS, the amyloid nucleation score result was “inactive”.

For the substance YYNSCKVN, the amyloid nucleation score is -1.35 ± 1.1.

Consider IIPLMLFSTLWGFKVHMKGY, for which the amyloid nucleation score is -0.207 ± 0.55.

Turning to YVYERIDSERRTRPCKKKMY, the amyloid nucleation score result was “inactive”.

With FLLSV, the amyloid nucleation score result was “inactive”.

In turn, WNLRMYLNMGYMVLFNIQF came in with an amyloid nucleation score of 3.64 ± 0.099.

SGYVIHLVDDKALHTCDRNQ: the amyloid nucleation score was 0.294 ± 0.18.

LTFRAVSWTWCYPPELSSCS: the amyloid nucleation score stood at 0.775 ± 0.49.

SMQCPLAAQTDM came in with an amyloid nucleation score of -0.301 ± 0.45.

In turn, GYAYLSLHKA came in with an amyloid nucleation score of 0.342 ± 0.2.

In the case of IMMLEVDDLYGIEQSTFWK, the amyloid nucleation score is -0.33 ± 0.64.

As for LELHGT, the amyloid nucleation score is -1.22 ± 0.45.

The substance SHLPVWTSKNARSRCDP had an amyloid nucleation score of 0.602 ± 0.25.

In turn, LTCSVNTGYYGYIRRL returned an amyloid nucleation score of -0.607 ± 0.25.

As to TVLLWD, the amyloid nucleation score entry was “inactive”.

As to VSIPLIISTCASLSVCSMTW, the amyloid nucleation score stood at 8.067 ± 0.034.

VWELDRVVR: the amyloid nucleation score turned out to be 0.783 ± 0.53.

Turning to LSVFVSGAPQIKLSNMVVKN, the amyloid nucleation score is -0.348 ± 0.76.

LFGTNFYVQDNIVKGRVLIM: the amyloid nucleation score entry was “inactive”.

In the case of FCYIDGLGYSRFNMHAEPSG, the amyloid nucleation score was -0.326 ± 0.48.

VEFTRVGVRLSHDVPVHDRW had an amyloid nucleation score of 3.95 ± 0.066.

For HIKDNQSSSV, the amyloid nucleation score amounted to 0.196 ± 0.44.

GSMVLPIICNKIAYRSCSTI came in with an amyloid nucleation score of -0.828 ± 0.56.

For the substance VSPAHPNYFPISP, the amyloid nucleation score was -0.889 ± 1.1.

Consider LDVTHN, for which the amyloid nucleation score amounted to 0.6 ± 0.35.

As to GLPYVSMINLHASYTERMVW, the amyloid nucleation score was -0.687 ± 0.64.

Regarding QDRVFYIAYVNNVS, the amyloid nucleation score was determined as 5.606 ± 0.04.

As to INISCLKVGALSKGTRLFR, the amyloid nucleation score is 2.14 ± 0.068.

Consider GTRYDT, for which the amyloid nucleation score is 0.468 ± 0.32.

In turn, CRKCFT had an amyloid nucleation score of 0.717 ± 0.4.

Regarding RQSNPR, the amyloid nucleation score was 1.53 ± 0.31.

As for TWQTLYASSVFFANPVEHPL, the amyloid nucleation score came to 0.068 ± 0.29.

Substance DVACNTRKPCS had an amyloid nucleation score of -0.908 ± 0.78.

Turning to FDLNVVDIFTLCMRKRYTME, the amyloid nucleation score entry is “inactive”.

WRYDSWFKRKHCMLLYICQG came in with an amyloid nucleation score of 0.003 ± 0.43.

With ACDVDAMFTKMYSIFFR, the amyloid nucleation score was 0.479 ± 0.62.

Turning to KKEVINWYFLTYAGLEKLCL, the amyloid nucleation score is -0.715 ± 0.48.

VFYSWKKLVSVLTSRYGFHV displayed an amyloid nucleation score of -0.965 ± 0.78.

In the case of EVAEQH, the amyloid nucleation score is 0.426 ± 0.16.

In turn, SWLTRIC registered an amyloid nucleation score of -0.249 ± 0.63.

KTIVSYV: the amyloid nucleation score result is “inactive”.

Consider LYIASSSLHCGLDVAW, for which the amyloid nucleation score was -0.298 ± 0.49.
